{"source": "paper PMC11573620", "about": "(Molecular Therapy, 2024)", "target": "T1, human CD155 extracellular domain fused to mouse Fc (human, UniProt P15151 21-343)", "T1 sequence (looked up)": "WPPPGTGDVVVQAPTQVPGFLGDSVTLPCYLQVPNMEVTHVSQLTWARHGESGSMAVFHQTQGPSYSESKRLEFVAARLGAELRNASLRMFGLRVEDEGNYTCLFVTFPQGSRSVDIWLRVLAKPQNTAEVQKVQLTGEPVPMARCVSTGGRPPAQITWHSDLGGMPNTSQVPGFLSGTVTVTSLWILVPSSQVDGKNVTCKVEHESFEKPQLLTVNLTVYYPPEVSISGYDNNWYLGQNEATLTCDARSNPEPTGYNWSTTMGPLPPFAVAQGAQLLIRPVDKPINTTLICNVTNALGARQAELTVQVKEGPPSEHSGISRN", "assay": "ELISA"}
{"binder": "human TIGIT extracellular domain, biotinylated (domain or fragment, UniProt Q495A1 22-141, looked up, biotin) MMTGTIETTGNISAEKGGSIILQCHLSSTTAQVTQVNWEQQDQLLAICNADLGWHISPSFKDRVAPGPGLGLTLQSLTVNDTGEYFCIYHTYPDGTYTGRIFLEVLESSVAEHGARFQIP", "values": [{"measurement": "binding result", "value": "binds"}]}
